Reference: publication PMC12014896 (2025)

target: SARS-CoV-2 spike RBD (Wuhan-Hu-1) (Severe acute respiratory syndrome …, UniProt P0DTC2); test: SPR

Binder | Kd [nM]
COVIC-93 (protein) MSSSSWLLLSLVAVTAAQSTIEEQVKTFLDKFNHEAEDLFYQCSLASWNYNTNITEENVQNMNNACDKWSAFLCEQSTLAQMYPLQEIQDLTVKLQLQALQQNGSCVLSEDKSKRLNTILNTMSTIYCTGKVCNPDNPQECLLLEPGLNEIMANSLDYNERLWAWESWRSEVGKQLRPLYEEYVVLKNEMARANHYEDYGDYWRGDYEVNGVDGYDYSRGQLIEDVEHTFEEIKPLYEHLHAYVRAKLMNAYPSYISPTGPLPAHLLGDMWGRFWTNLYSLTVPFGQKPNIDVTDAMVDQAWDAQRIFKEAEKFFVSVGLPNMTQGFWENSMLTDPGNGQKVCCYPTAWDLGKGDFRILMCTKVTMDDFLTAHHEMGHIQYDMAYAAQPFLLRNGANEGFHEAVGEIMSLSAATPKHLKSIGLLSPDFQEDNETEINFLLKQALTIVGTLPFTYMLEKWRWMVFKGEIPKDQWMKKWWEMKREIVGVVEPVPHDETYMDPASLFHVSNDYSFIRYYTRTLYQFQFQEALCQAAKHEGPLHKCDISNSTEAGQKLFNMLRLGKSEPWTLALENVVGAKNMNVRPLLNYFEPLFTWLKDQNKNSFVGWSTDWSPYADQSIKVRISLKSALGDKAYEWNDNEMYLFRSSVAYAMRQYFLKVKNQMILFGEEDVRVANLKPRISFNFFVTAPKNVSDITPRTEVEKAIRMSRSRINDCFRLNDNSLEFLGIQPTLGPPNQPPVECPPCPAPPVAGPSVFLFPPKPKDTLMISRTPEVTCVVVDVSHEDPEVQFNWYVDGVEVHNAKTKPREEQFNSTFRVVSVLTVVHQDWLNGKEYKCKVSNKGLPAPIEKTISKTKGQPREPQVYTLPPSREEMTKNQVSLTCLVKGFYPSDISVEWESNGQPENNYKTTPPMLDSDGSFFLYSKLTVDKSRWQQGNVFSCSVLHEALHSHYTQKSLSLSPGK | 0.431
COVIC-167 (antibody, V domains shown) VH: EVQLVESGGGLIQPGGSLRLSCAASGLTVSSNYMSWVRQAPGKGLEWVSIIYSGGSTYYADSVKGRFTISRDNSKNTLYLQMNSLRAEDTAVYYCARLGGYYYYGMDVWGQGTTVTVSS VL: DIQMTQSPSSLSASVGERVTITCQASQDIRNYLNWYQKKPGKAPKLLIYDSSNLETGVPSRFSGGGSGTDFTFTISSLQPEDIATYYCQQYDNLPITFGQGTRLEIKR | 1.87
COVIC-131 (antibody, V domains shown) VH: EVQLVESGGGVVQPGRSLRLSCAASAFTFSSYDMHWVRQAPGKGLEWVAVISYDGSNKYYADSVKGRFTISRDNSKNTLYLQMNSLRAEDTAVYYCAKDGGKLWVYYFDYWGQGTTVTVSS VL: not shown | 2.05
COVIC-142 (antibody, V domains shown) VH: EVQLVESGGGLIQPGGSLRLSCAASGFTVSSNYMSWVRQAPGKGLEWVSVIYSGGSTYYADSVKGRFTISRDNSKNTLYLQMNSLRAEDTAVYYCARHITMVRGVIIYLKEWGQGTLVTVSS VL: DIVMTQSPSSLSASVGDRVTITCQASQDISNYLNWYQQKPGKAPKLLIYDASNLETGVPSRFSGSGSGTDFTFTISSLQPEDIATYYCQQCDNLPITFGQGTRLEIK | 16.5
COVIC-149 (antibody, V domains shown) VH: not shown VL: DIQLTQSPSFLSASVGDRVTITCWASQGINSYLAWYQQKPGKAPKLLIYAASTLQSGVPSRFSGSGSGTEFTLTISSLQPEDFTTYYCQQFNDYPRTFGPGTKVEIKR | 22.3
COVIC-160 (antibody, V domains shown) VH: EVQLVESGGGLIQPGGSLRLSCAASGVTVSSNYMSWVRQAPGKGLEWVSVIYSGGSTFYADSVKGRFTISRDNSKNTLYLQMNSLRAEDTAVYYCARDLSYYGMDVWGQGTTVTVSS VL: DIQLTQSPSFLSASVGDRVTITCWASQGISSYLAWYQQKPGKAPKLLIYAASTLQSGVPSKFSGSGSGTEFTLTISSLQPEDFATYYCQQLNSYPCSFGQGTKLEIKR | 14.7
COVIC-306 (antibody, V domains shown) VH: QVQLVESGGGLVKPGGSLRLSCAASGFTVGSNYMSWVRQAPGKGLEWVSVIYSGGSTYYADSVKGRFTISRDNSKNTLYLQMNSLRAEDTAVYYCARGSSGAWYFDLWGRGTLVTVSS VL: EIVMTQSPSSLSASVGDSVTITCQASQDISNYLNWYQQKPGKAPKLLIYDASNLETGVPSRFSGGGSGTDFTLTITSLQPEDIATYYCQQYDNFPPTFGPGTKVDIKR | 26.3
